These results are taken from publication doi:10.1101/2025.09.05.674518 (bioRxiv, 2025).

The target of one test is T1, M527D MXA (Homo sapiens, UniProt P20591).
T1 chain: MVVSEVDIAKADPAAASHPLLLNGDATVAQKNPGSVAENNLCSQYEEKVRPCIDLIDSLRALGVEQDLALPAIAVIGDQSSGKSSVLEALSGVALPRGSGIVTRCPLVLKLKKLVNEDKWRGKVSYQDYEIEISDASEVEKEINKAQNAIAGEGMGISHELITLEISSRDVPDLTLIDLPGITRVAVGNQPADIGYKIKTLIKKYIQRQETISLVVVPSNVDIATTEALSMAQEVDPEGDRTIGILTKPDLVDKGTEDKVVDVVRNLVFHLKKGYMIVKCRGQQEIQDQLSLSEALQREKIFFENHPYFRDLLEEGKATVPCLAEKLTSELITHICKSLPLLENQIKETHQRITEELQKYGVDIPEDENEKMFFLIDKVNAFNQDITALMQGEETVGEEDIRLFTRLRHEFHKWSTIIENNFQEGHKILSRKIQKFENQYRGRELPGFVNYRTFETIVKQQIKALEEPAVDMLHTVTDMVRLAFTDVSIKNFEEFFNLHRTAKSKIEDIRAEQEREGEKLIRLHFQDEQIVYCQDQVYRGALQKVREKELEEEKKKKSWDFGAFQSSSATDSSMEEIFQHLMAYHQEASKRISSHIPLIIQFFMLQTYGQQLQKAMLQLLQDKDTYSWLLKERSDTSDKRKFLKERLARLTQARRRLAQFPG

Test [1] concerns the target wild-type human MXA (Myxovirus resistance protein A), MAPPIT bait or prey (Homo sapiens, UniProt P20591).
Test [2] concerns the target recombinant wild-type human MXA (Homo sapiens, UniProt P20591). Put plainly: ELISA. (In general: In an ELISA, binding on a coated surface is turned into a signal by an enzyme label.)

Positions count from the first letter of the chain named.

B1: VHH88 (VHH)
chain: QVQLQESGGGLVQAGDSLTLSCARSGRIFNSVPMGWFRQAPGKEREIVAAISGNGVNTYYADSVKGRFAISRDSAKNTYLQMSSLKPEDTAVYYCAARVTPWDTRYYLDDYQYWGQGTQVTVSS
B1: the binding result (in the test with M527D MXA; in test [1]) was “binds” each time.

B2: VHH97 (VHH)
chain: B1 chain with D16G, T19R, R24K, N30S, V56E, A69T, S74N, T104S, Q112H
B2: the binding result (in the test with M527D MXA; in test [1]) was “binds” each time.

B3: VHH7, His6-tagged, purified from Pichia pastoris (VHH)
VHH: QVQLQESGGGLVQAGDSLRLSCANSGRTRSAMGWFRQAPGKEREFVAAITWSGYGTYYADSVKGRFTISRDNAKNALYLRMNSLKPDDTAVYYCAARRNQYYSYSSASADYDYWGQGTQVTVSS
Consider B3, for which, in test [2], the binding result was “binds”.

B4: VHH93 (VHH)
chain: QVQLQESGGGLVQAGDSLRLSCVVSGRFLSGYAVGWFRQAPGNERDFVAAFTWIGGQTSYADSVKGRFTVSRDNAKNTLYLQMNNLKPEDTAVYYCAAKVAIVPPTTARGYDYWGQGTQVTVSS
Turning to B4, the binding result (with M527D MXA; in test [1]) was “binds” throughout.

B5: VHH5, His6-tagged, purified from Pichia pastoris (VHH)
VHH: QVQLQESGGGLVQAGDSLILSCAASGRTFSSSAMGWFRQAPGKEREFVAAITYSGISTEYADSVKGRFTISRDNPKSTLYLRMNSLKAEDTAVYYCAARRNGYYSRSHYSTDYEYWGRGTQVTVSS
Turning to B5, the binding result in test [2] is “binds”.
